The values below come from PMC12448071.

The target in the experiment is F-actin (actin from rabbit skeletal muscle, polymerised) (rabbit) (UniProt P68135). Put plainly: co-sedimentation; high-speed cosedimentation titration: constant 500 nM FL-HTT with increasing F-actin, 30 min RT; apparent constant (Kdapp); fit accounts for ligand depletion and incomplete saturation.

For the substance “recombinant human full-length wild-type HTT (21 glutamines), P42858 1-3142”, the Kd was 236 nM.
